Our source for the Kd values is paper PMC12169211.

In the data set the target is thrombin (biotinylated, immobilized on streptavidin microparticles) (UniProt P00734;P00734 328-363;364-622). The data set can be described thus: microparticle flow cytometry; Thrombin-microparticles incubated with 0.5-200 nM FAM-aptamer, washed with DPBS, flow cytometry; binding buffer, pH and temperature not stated. (In general: Flow cytometry measures light scatter and fluorescence of single cells or particles in a stream.)

B1: hybrid bispecific aptamer without toehold (HBA; 15-mer-Sticky + 29-mer-Sticky) (structured_DNA)
DNA 1: GGTTGGTGTGGTTGGTTTTTGACCCTGCGTACC
DNA 2: AGTCCGTGGTAGGGCAGGTTGGGGTGACTTTTTTGGTACGCAGGTC
As a reminder, the Kd is the constant that tells how readily two partners part at equilibrium. High values mean lower affinity, low ones higher affinity. B1: binding was characterised by a dissociation constant (Kd) of 4.8 nM.

B2: toehold hybrid bispecific aptamer (THBA; 15-mer-Sticky + 29-mer-Sticky-TH) (structured_DNA)
DNA 1: B1 DNA 1
DNA 2: AGTCCGTGGTAGGGCAGGTTGGGGTGACTTTTTTGGTACGCAGGTCCGTTA
Turning to B2, the Kd is ~5.7 nM.
